Reference: IntAct's records for PubMed 19509288

B1: ATP-dependent RNA helicase SUPV3L1, mitochondrial (Homo sapiens), Q8IYB8 (parent)
chain: MSFSRALLWARLPAGRQAGHRAAICSALRPHFGPFPGVLGQVSVLATASSSASGGSKIPNTSLFVPLTVKPQGPSADGDVGAELTRPLDKNEVKKVLDKFYKRKEIQKLGADYGLDARLFHQAFISFRNYIMQSHSLDVDIHIVLNDICFGAAHADDLFPFFLRHAKQIFPVLDCKDDLRKISDLRIPPNWYPDARAMQRKIIFHSGPTNSGKTYHAIQKYFSAKSGVYCGPLKLLAHEIFEKSNAAGVPCDLVTGEERVTVQPNGKQASHVSCTVEMCSVTTPYEVAVIDEIQMIRDPARGWAWTRALLGLCAEEVHLCGEPAAIDLVMELMYTTGEEVEVRDYKRLTPISVLDHALESLDNLRPGDCIVCFSKNDIYSVSRQIEIRGLESAVIYGSLPPGTKLAQAKKFNDPNDPCKILVATDAIGMGLNLSIRRIIFYSLIKPSINEKGERELEPITTSQALQIAGRAGRFSSRFKEGEVTTMNHEDLSLLKEILKRPVDPIRAAGLHPTAEQIEMFAYHLPDATLSNLIDIFVDFSQVDGQYFVCNMDDFKFSAELIQHIPLSLRVRYVFCTAPINKKQPFVCSSLLQFARQYSRNEPLTFAWLRRYIKWPLLPPKNIKDLMDLEAVHDVLDLYLWLSYRFMDMFPDASLIRDLQKELDGIIQDGVHNITKLIKMSETHKLLNLEGFPSGSQSRLSGTLKSQARRTRGTKALGSKATEPPSPDAGELSLASRLVQQGLLTPDMLKQLEKEWMTQQTEHNKEKTESGTHPKGTRRKKKEPDSD
partner: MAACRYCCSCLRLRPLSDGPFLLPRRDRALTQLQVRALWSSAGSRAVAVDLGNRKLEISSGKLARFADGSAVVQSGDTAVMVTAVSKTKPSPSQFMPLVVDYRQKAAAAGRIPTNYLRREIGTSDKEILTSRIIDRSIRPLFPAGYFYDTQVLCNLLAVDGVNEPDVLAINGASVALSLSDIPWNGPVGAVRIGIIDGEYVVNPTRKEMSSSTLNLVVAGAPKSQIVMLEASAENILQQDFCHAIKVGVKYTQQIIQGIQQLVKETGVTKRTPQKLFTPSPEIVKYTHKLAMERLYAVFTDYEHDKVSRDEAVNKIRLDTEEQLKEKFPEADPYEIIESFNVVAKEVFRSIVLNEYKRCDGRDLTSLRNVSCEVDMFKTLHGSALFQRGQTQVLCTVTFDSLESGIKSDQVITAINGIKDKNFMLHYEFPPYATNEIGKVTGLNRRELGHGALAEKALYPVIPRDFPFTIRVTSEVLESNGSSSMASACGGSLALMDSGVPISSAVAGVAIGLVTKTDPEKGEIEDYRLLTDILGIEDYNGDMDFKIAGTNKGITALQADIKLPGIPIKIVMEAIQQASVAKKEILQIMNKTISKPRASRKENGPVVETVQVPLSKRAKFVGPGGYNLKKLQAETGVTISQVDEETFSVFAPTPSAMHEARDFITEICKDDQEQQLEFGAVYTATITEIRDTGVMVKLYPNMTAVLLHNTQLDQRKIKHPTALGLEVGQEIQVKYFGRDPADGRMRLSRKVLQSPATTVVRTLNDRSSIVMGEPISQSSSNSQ

Variants of: B1
Conditions: with pnpt1_human PNPT1, Q8TCS8

Variant | effect of a mutation on the interaction
K213A | with no effect
